Reference: FireProtDB (doi:10.1021/bi00177a023)

Details: Aspergillus oryzae (strain ATCC 42149 / RIB 40), Thermal, DSC, NaCl 80 mM, reversible: yes, whole UniProt chain shown
[1] = pH 6, Sodium cacodylate-HCl 10 mM
[2] = pH 6.5, Sodium cacodylate-HCl 10 mM
[3] = pH 7, Sodium cacodylate-HCl 10 mM
[4] = pH 8.6, Sodium borate-HCl 10 mM

B1: Guanyl-specific ribonuclease T1 wild type, P00651 (protein)
chain: MMYSKLLTLTTLLLPTALALPSLVERACDYTCGSNCYSSSDVSTAQAAGYQLHEDGETVGSNSYPHKYNNYEGFDFSVSSPYYEWPILSSGDVYSGGSPGADRVVFNENNQLAGVITHTGASGNNFVECT
- Tm (pH 5, Sodium acetate 10 mM): 58.8 °C
- heat capacity change of unfolding (pH 5, Sodium acetate 10 mM): 0.89 kcal/mol/K
- unfolding enthalpy (calorimetric) (pH 5, Sodium acetate 10 mM): 112 kcal/mol
- unfolding enthalpy (van 't Hoff) (pH 5, Sodium acetate 10 mM): 115 kcal/mol
- Tm [1]: 54.1 °C
- heat capacity change of unfolding [1]: 1.28 kcal/mol/K
- unfolding enthalpy (calorimetric) [1]: 111 kcal/mol
- unfolding enthalpy (van 't Hoff) [1]: 110 kcal/mol
- Tm [2]: 50.9 °C
- heat capacity change of unfolding [2]: 1.23 kcal/mol/K
- unfolding enthalpy (calorimetric) [2]: 106 kcal/mol
- unfolding enthalpy (van 't Hoff) [2]: 112 kcal/mol
- Tm [3]: 48.8 °C
- heat capacity change of unfolding [3]: 1.21 kcal/mol/K
- unfolding enthalpy (calorimetric) [3]: 108 kcal/mol
- unfolding enthalpy (van 't Hoff) [3]: 108 kcal/mol
- Tm [4]: 43.4 °C
- heat capacity change of unfolding [4]: 1.2 kcal/mol/K
- unfolding enthalpy (calorimetric) [4]: 94.7 kcal/mol
- unfolding enthalpy (van 't Hoff) [4]: 109 kcal/mol
- Tm (pH 9.7, glycine-NaOH 10 mM): 40.7 °C
- heat capacity change of unfolding (pH 9.7, glycine-NaOH 10 mM): 1.22 kcal/mol/K
- unfolding enthalpy (calorimetric) (pH 9.7, glycine-NaOH 10 mM): 79.7 kcal/mol
- unfolding enthalpy (van 't Hoff) (pH 9.7, glycine-NaOH 10 mM): 102 kcal/mol
